# Measurements published in patent publication US20260263609A1 (NEW YORK UNIVERSITY, published 2026).
# Where a chain is given by its changes, count along the chain named.
# B1: Mb(NRAS_19) (designed binder)
# chain: VSSVPTKLEVVAATPTSLLISWDAPAVTVDFYVITYGETGSYYPYAQEFKVPGSKSTATISGLSPGVDYTITVYAYQVIGAIWKYYSPISINYRT
# B2: Mb(NRAS_24) with the FG loop of SEQ ID NO: 22 (designed binder)
# chain: B1 chain with S41G, Y43A, P44W, Y45A, A46Y, V78I, I79R
# notes: length of the loop entry not visible
# B3: Mb(NRAS_24) with the FG loop of SEQ ID NO: 36 (designed binder)
# chain: B1 chain with S41G, Y43A, P44W, Y45A, A46Y, G80A, A81H
# notes: as for B2
# B4: Mb(NRAS_24) with the FG loop of SEQ ID NO: 34 (designed binder)
# chain: B1 chain with S41G, Y43A, P44W, Y45A, A46Y, V78T, I79V
# notes: as for B2
# B5: Mb(NRAS_24) with the FG loop of SEQ ID NO: 38 (designed binder)
# chain: B1 chain with S41G, Y43A, P44W, Y45A, A46Y, G80A, A81Y
# notes: as for B2
# B6: Mb(NRAS_24) with the FG loop of SEQ ID NO: 31 (designed binder)
# chain: B1 chain with S41G, Y43A, P44W, Y45A, A46Y, V78T, I79E
# notes: as for B2
# B7: Mb(NRAS_24) with the FG loop of SEQ ID NO: 54 (designed binder)
# chain: B1 chain with S41G, Y43A, P44W, Y45A, A46Y, G80R, A81H
# notes: as for B2
# B8: Mb(NRAS_24) with the FG loop of SEQ ID NO: 19 (designed binder)
# chain: B1 chain with S41G, Y43A, P44W, Y45A, A46Y, V78I, I79H
# notes: as for B2
# B9: Mb(NRAS_24) with the FG loop of SEQ ID NO: 45 (designed binder)
# chain: B1 chain with S41G, Y43A, P44W, Y45A, A46Y, W83C
# notes: as for B2
# B10: Mb(NRAS_24) with the FG loop of SEQ ID NO: 30 (designed binder)
# chain: B1 chain with S41G, Y43A, P44W, Y45A, A46Y, V78T, I79D
# notes: as for B2
# B11: Mb(NRAS_24) with the FG loop of SEQ ID NO: 15 (designed binder)
# chain: B1 chain with S41G, Y43A, P44W, Y45A, A46Y, Y76S
# notes: as for B2
# B12: Mb(NRAS_24) with the FG loop of SEQ ID NO: 29 (designed binder)
# chain: B1 chain with S41G, Y43A, P44W, Y45A, A46Y, V78L, I79Y
# notes: as for B2
# B13: Mb(NRAS_24) with the FG loop of SEQ ID NO: 37 (designed binder)
# chain: B1 chain with S41G, Y43A, P44W, Y45A, A46Y, G80A, A81S
# notes: as for B2
# B14: Mb(NRAS_24) with the FG loop of SEQ ID NO: 56 (designed binder)
# chain: B1 chain with S41G, Y43A, P44W, Y45A, A46Y, G80R, A81Y
# notes: as for B2
# B15: Mb(NRAS_24) with the FG loop of SEQ ID NO: 63 (designed binder)
# chain: B1 chain with S41G, Y43A, P44W, Y45A, A46Y, I79S
# notes: as for B2
# B16: Mb(NRAS_24) with the FG loop of SEQ ID NO: 67 (designed binder)
# chain: B1 chain with S41G, Y43A, P44W, Y45A, A46Y, V78Y, I79Y
# notes: as for B2
# B17: Mb(NRAS_24) with the FG loop of SEQ ID NO: 25 (designed binder)
# chain: B1 chain with S41G, Y43A, P44W, Y45A, A46Y, V78L, I79D
# notes: as for B2
# B18: Mb(NRAS_24) with the FG loop of SEQ ID NO: 42 (designed binder)
# chain: B1 chain with S41G, Y43A, P44W, Y45A, A46Y, G80E, A81H
# notes: as for B2
# B19: Mb(NRAS_24) with the FG loop of SEQ ID NO: 58 (designed binder)
# chain: B1 chain with S41G, Y43A, P44W, Y45A, A46Y, G80S, A81S
# notes: as for B2
# B20: Mb(NRAS_24) with the FG loop of SEQ ID NO: 28 (designed binder)
# chain: B1 chain with S41G, Y43A, P44W, Y45A, A46Y, V78L, I79L
# notes: as for B2
# B21: Mb(NRAS_24) with the FG loop of SEQ ID NO: 33 (designed binder)
# chain: B1 chain with S41G, Y43A, P44W, Y45A, A46Y, V78T, I79L
# notes: as for B2
# B22: Mb(NRAS_24) with the FG loop of SEQ ID NO: 41 (designed binder)
# chain: B1 chain with S41G, Y43A, P44W, Y45A, A46Y, G80D, A81Y
# notes: as for B2
# B23: Mb(NRAS_24) with the FG loop of SEQ ID NO: 17 (designed binder)
# chain: B1 chain with S41G, Y43A, P44W, Y45A, A46Y, V78I, I79D
# notes: as for B2
# B24: Mb(NRAS_24) with the FG loop of SEQ ID NO: 50 (designed binder)
# chain: B1 chain with S41G, Y43A, P44W, Y45A, A46Y, G80K, A81H
# notes: as for B2
# B25: Mb(NRAS_24) with the FG loop of SEQ ID NO: 66 (designed binder)
# chain: B1 chain with S41G, Y43A, P44W, Y45A, A46Y, V78Y, I79V
# notes: as for B2
# B26: Mb(NRAS_24) with the FG loop of SEQ ID NO: 24 (designed binder)
# chain: B1 chain with S41G, Y43A, P44W, Y45A, A46Y, V78I, I79Y
# notes: as for B2
# B27: Mb(NRAS_24) with the FG loop of SEQ ID NO: 52 (designed binder)
# chain: B1 chain with S41G, Y43A, P44W, Y45A, A46Y, G80K, A81Y
# notes: as for B2
# B28: Mb(NRAS_24) with the FG loop of SEQ ID NO: 61 (designed binder)
# chain: B1 chain with S41G, Y43A, P44W, Y45A, A46Y, G80Y, A81H
# notes: as for B2
# B29: Mb(NRAS_24) with the FG loop of SEQ ID NO: 57 (designed binder)
# chain: B1 chain with S41G, Y43A, P44W, Y45A, A46Y, G80S, A81H
# notes: as for B2
# B30: Mb(NRAS_24) with the FG loop of SEQ ID NO: 47 (designed binder)
# chain: B1 chain with S41G, Y43A, P44W, Y45A, A46Y, G80H, A81H
# notes: as for B2
# B31: Mb(NRAS_24) with the FG loop of SEQ ID NO: 26 (designed binder)
# chain: B1 chain with S41G, Y43A, P44W, Y45A, A46Y, V78L, I79E
# notes: as for B2
# B32: Mb(NRAS_24) with the FG loop of SEQ ID NO: 60 (designed binder)
# chain: B1 chain with S41G, Y43A, P44W, Y45A, A46Y, G80T, A81H
# notes: as for B2
# B33: Mb(NRAS_24) with the FG loop of SEQ ID NO: 18 (designed binder)
# chain: B1 chain with S41G, Y43A, P44W, Y45A, A46Y, V78I, I79E
# notes: as for B2
# B34: Mb(NRAS_24) with the FG loop of SEQ ID NO: 35 (designed binder)
# chain: B1 chain with S41G, Y43A, P44W, Y45A, A46Y, V78T, I79Y
# notes: as for B2
# B35: Mb(NRAS_24) with the FG loop of SEQ ID NO: 20 (designed binder)
# chain: B1 chain with S41G, Y43A, P44W, Y45A, A46Y, V78I, I79K
# notes: as for B2
# B36: Mb(NRAS_24) with the FG loop of SEQ ID NO: 40 (designed binder)
# chain: B1 chain with S41G, Y43A, P44W, Y45A, A46Y, G80D, A81S
# notes: as for B2
# B37: Mb(NRAS_24) with the FG loop of SEQ ID NO: 39 (designed binder)
# chain: B1 chain with S41G, Y43A, P44W, Y45A, A46Y, G80D, A81H
# notes: as for B2
# B38: Mb(NRAS_24) with the FG loop of SEQ ID NO: 27 (designed binder)
# chain: B1 chain with S41G, Y43A, P44W, Y45A, A46Y, V78L, I79H
# notes: as for B2
# B39: Mb(NRAS_24) with the FG loop of SEQ ID NO: 23 (designed binder)
# chain: B1 chain with S41G, Y43A, P44W, Y45A, A46Y, V78I, I79V
# notes: as for B2
# B40: Mb(NRAS_24) with the FG loop of SEQ ID NO: 62 (designed binder)
# chain: B1 chain with S41G, Y43A, P44W, Y45A, A46Y, G80Y, A81Y
# notes: as for B2
# B41: Mb(NRAS_24) with the FG loop of SEQ ID NO: 46 (designed binder)
# chain: B1 chain with S41G, Y43A, P44W, Y45A, A46Y, I82L
# notes: as for B2
# B42: Mb(NRAS_24) with the FG loop of SEQ ID NO: 65 (designed binder)
# chain: B1 chain with S41G, Y43A, P44W, Y45A, A46Y, V78Y, I79H
# notes: as for B2
# B43: Mb(NRAS_24) with the FG loop of SEQ ID NO: 53 (designed binder)
# chain: B1 chain with S41G, Y43A, P44W, Y45A, A46Y, G80L, A81H
# notes: as for B2
# B44: Mb(NRAS_24) with the FG loop of SEQ ID NO: 44 (designed binder)
# chain: B1 chain with S41G, Y43A, P44W, Y45A, A46Y, G80E, A81Y
# notes: as for B2
# B45: Mb(NRAS_24) with the FG loop of SEQ ID NO: 64 (designed binder)
# chain: B1 chain with S41G, Y43A, P44W, Y45A, A46Y, V78Y, I79E
# notes: as for B2
# B46: Mb(NRAS_24) with the FG loop of SEQ ID NO: 48 (designed binder)
# chain: B1 chain with S41G, Y43A, P44W, Y45A, A46Y, G80H, A81S
# notes: as for B2
# B47: Mb(NRAS_24) with the FG loop of SEQ ID NO: 51 (designed binder)
# chain: B1 chain with S41G, Y43A, P44W, Y45A, A46Y, G80K, A81S
# notes: as for B2
# B48: Mb(NRAS_24) with the FG loop of SEQ ID NO: 43 (designed binder)
# chain: B1 chain with S41G, Y43A, P44W, Y45A, A46Y, G80E, A81S
# notes: as for B2
# B49: Mb(NRAS_24) with the FG loop of SEQ ID NO: 55 (designed binder)
# chain: B1 chain with S41G, Y43A, P44W, Y45A, A46Y, G80R, A81S
# notes: as for B2
# B50: Mb(NRAS_24) with the FG loop of SEQ ID NO: 16 (designed binder)
# chain: B1 chain with S41G, Y43A, P44W, Y45A, A46Y, Q77H
# notes: as for B2
# B51: Mb(NRAS_24) with the FG loop of SEQ ID NO: 59 (designed binder)
# chain: B1 chain with S41G, Y43A, P44W, Y45A, A46Y, G80S, A81Y
# notes: as for B2
# B52: Mb(NRAS_24) with the FG loop of SEQ ID NO: 32 (designed binder)
# chain: B1 chain with S41G, Y43A, P44W, Y45A, A46Y, V78T, I79H
# notes: as for B2
# B53: Mb(NRAS_24) with the FG loop of SEQ ID NO: 49 (designed binder)
# chain: B1 chain with S41G, Y43A, P44W, Y45A, A46Y, G80H, A81Y
# notes: as for B2
# B54: Mb(NRAS_24) with the FG loop of SEQ ID NO: 21 (designed binder)
# chain: B1 chain with S41G, Y43A, P44W, Y45A, A46Y, V78I, I79L
# notes: as for B2
# Columns and labels:
# NRAS (K135R) = target: T1, NRAS (K135R) (human, UniProt P01111 1-174, limits assumed); experiment: BLI; sensorgrams at 100 nM and 25 nM with fit; nucleotide state not marked
# T1 construct: also called NRAS mutant with the H/KRAS-mimicking mutation K135R
# NRAS [1] = target: T2, NRAS (human, UniProt P01111 1-174, limits assumed); experiment: BLI; biotinylated monobody on streptavidin tip, NRAS(WT)·GDP at 50, 25, 12.5 and 6.25 nM; global 1:1 fit
# T2 construct: also called Neuroblastoma-RAS; NRAS (WT)
# NRAS [2] = target: T2, NRAS; experiment: BLI; biotinylated monobody on streptavidin tip, NRAS(WT)·GTPγS at 50, 25, 12.5 and 6.25 nM; global 1:1 fit
# NRAS [3] = target: T2, NRAS; experiment: yeast display, cells sorted for binding to NRAS (WT);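 further: Yeast-displayed monobody variants with one or two residue substitutions, monobody sequences read from cells recovered by sorting for binding to wild-type NRAS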
binding result (NRAS [3]),other results,Binder
,Kd (NRAS (K135R)): 6.6 nM; Kd (NRAS [1]): 1.8 nM; Kd (NRAS [2]): 0.83 nM,B1
binds,,B2
binds,,B3
binds,,B4
binds,,B5
binds,,B6
binds,,B7
binds,,B8
binds,,B9
binds,,B10
binds,,B11
binds,,B12
binds,,B13
binds,,B14
binds,,B15
binds,,B16
binds,,B17
binds,,B18
binds,,B19
binds,,B20
binds,,B21
binds,,B22
binds,,B23
binds,,B24
binds,,B25
binds,,B26
binds,,B27

binding result (NRAS [3]),other results,Binder
binds,,B28
binds,,B29
binds,,B30
binds,,B31
binds,,B32
binds,,B33
binds,,B34
binds,,B35
binds,,B36
binds,,B37
binds,,B38
binds,,B39
binds,,B40
binds,,B41
binds,,B42
binds,,B43
binds,,B44
binds,,B45
binds,,B46
binds,,B47
binds,,B48
binds,,B49
binds,,B50
binds,,B51
binds,,B52
binds,,B53
binds,,B54
